From publication PMC7083938, “NELL2-Robo3 complex structure reveals mechanisms of receptor activation for axon guidance” (Nature Communications, 2020) come the findings set out here.

Some results are limits rather than exact numbers.

Assay [1] deals with T1, hRobo3 FN1-3 displayed on S2 cells (human, UniProt Q96MS0 549-870).
T1 construct: human Robo3, FN domains 1-3, P549-L870; also called Robo3FN1-3 WT (Actin 5C, C-terminal FLAG); source: Drosophila S2 cells, transiently transfected, on the cell surface; not shown: FLAG, C-terminal, kept; transmembrane helix of rat Neurexin-1, C-terminal, kept
T1 sequence (looked up): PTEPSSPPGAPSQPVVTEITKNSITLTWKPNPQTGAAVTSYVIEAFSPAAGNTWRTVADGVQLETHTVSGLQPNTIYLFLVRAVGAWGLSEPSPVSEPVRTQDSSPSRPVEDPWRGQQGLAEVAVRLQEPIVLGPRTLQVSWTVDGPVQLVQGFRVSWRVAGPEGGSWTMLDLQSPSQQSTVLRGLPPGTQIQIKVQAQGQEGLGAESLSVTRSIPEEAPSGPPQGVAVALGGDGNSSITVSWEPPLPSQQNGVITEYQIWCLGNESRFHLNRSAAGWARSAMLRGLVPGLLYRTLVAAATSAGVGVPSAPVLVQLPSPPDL
The assay can be described thus: flow cytometry on cells; biotinylated ligand at various concentrations, 30 min at 4 °C in PBS + 0.1% BSA, on Drosophila S2 cells displaying the partner (C-terminal FLAG, rat Neurexin-1 transmembrane helix); Cy5-streptavidin; gated on anti-FLAG positive cells; MFI fit to a single-site model; apparent KD. The following applies: one partner purified. On the technique in general: A flow cytometer gives signals particle by particle.

Assay [2] concerns the target T2, hRobo3 FN1-3, biotinylated (wild type) (human, UniProt Q96MS0 549-870, biotin on the Avi-tag (BirA)).
T2 construct: human Robo3, FN domains 1-3, P549-L870; also called WT hRobo3 FN; Robo3FN1-3 WT; source: High Five cells (baculovirus), purified (Ni-NTA, SEC), biotinylated with BirA
T2 sequence (looked up): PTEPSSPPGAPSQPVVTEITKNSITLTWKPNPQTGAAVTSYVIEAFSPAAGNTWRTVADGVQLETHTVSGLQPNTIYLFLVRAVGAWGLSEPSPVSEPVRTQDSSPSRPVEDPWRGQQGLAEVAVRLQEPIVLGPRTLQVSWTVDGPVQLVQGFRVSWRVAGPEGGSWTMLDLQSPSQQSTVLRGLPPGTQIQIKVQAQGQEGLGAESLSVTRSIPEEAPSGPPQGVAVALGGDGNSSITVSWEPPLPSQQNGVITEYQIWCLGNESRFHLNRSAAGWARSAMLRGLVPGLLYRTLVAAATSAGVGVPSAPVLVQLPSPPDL
The assay can be described thus: SPR; as a6 but with additional 10 mM EDTA in all buffers. To be noted: both partners purified. In general terms: Surface plasmon resonance follows binding to a sensor surface in real time, without labels.

Assay [3] has as its target T2, hRobo3 FN1-3, biotinylated (wild type). The assay can be described thus: SPR; biotinylated hRobo3 FN1-3 on an SA chip, Biacore 3000; hNELL1 EGF1-3 or hNELL2 EGF1-3 as analyte; equilibrium isotherms. The following applies: both partners purified.

B1: hNELL2 EGF1-6, biotinylated (wild type) (domain or fragment)
chain: not shown
modifications: biotin on the Avi-tag (BirA)
notes: human NELL2, EGF domains 1-6, G397-T637; also called WT hNELL2 EGF; NELL2EGF1-6 WT; source: High Five cells (baculovirus), purified (Ni-NTA, SEC), biotinylated with BirA
Turning to B1, the Kd in assay [1] is 770 nM.

B2: hNELL2 EGF1-6 R448A/Y450A, biotinylated (domain or fragment)
chain: not shown
modifications: biotin on the Avi-tag (BirA)
notes: human NELL2, EGF domains 1-6, G397-T637; source: High Five cells (baculovirus), purified, biotinylated with BirA (general methods)
In the case of B2, the Kd in assay [1] was 9000 nM.

B3: hNELL2 EGF1-6 L498A/F500A, biotinylated (domain or fragment)
chain: not shown
modifications: biotin on the Avi-tag (BirA)
notes: as for B2
Take B3: in assay [1], the Kd is ≥ 100000 nM.

B4: hNELL2 EGF1-6 D476A, biotinylated (domain or fragment)
chain: not shown
modifications: biotin on the Avi-tag (BirA)
notes: as for B2
As to B4, the Kd in assay [1] was ~50000 nM.

B5: hNELL2 EGF1-6 V509A, biotinylated (domain or fragment)
chain: not shown
modifications: biotin on the Avi-tag (BirA)
notes: as for B2
In the case of B5, the Kd in assay [1] amounted to 1500 nM.

B6: hNELL2 EGF1-6 D477A/Y478A, biotinylated (domain or fragment)
chain: not shown
modifications: biotin on the Avi-tag (BirA)
notes: as for B2
As for B6, the Kd in assay [1] is ≥ 100000 nM.

B7: hNELL2 EGF1-6 R452A, biotinylated (domain or fragment)
chain: not shown
modifications: biotin on the Avi-tag (BirA)
notes: as for B2
With B7, the Kd in assay [1] is 1100 nM.

B8: hNELL2 EGF1-3 (domain or fragment, human, UniProt Q99435 397-523, looked up)
chain: GYDFCSERHNCMENSICRNLNDRAVCSCRDGFRALREDNAYCEDIDECAEGRHYCRENTMCVNTPGSFMCICKTGYIRIDDYSCTEHDECITNQHNCDENALCFNTVGGHNCVCKPGYTGNGTTCKA
notes: human NELL2, EGF domains 1-3, G397-A523; also called NELL2EGF1-3 (Polyhedrin, human); source: High Five cells (baculovirus), purified (Ni-NTA, SEC)
On to B8, for which the figures for the Kd in assay [2] and in assay [3] were 790 nM and 250 nM, respectively.
